Measurements from patent US20240116990A1, “Compositions and Methods of Treatment Using CRRL 191” (Mayo Foundation for Medical Education and Research, priority 2022, published 2024).

T1: human GC-A (human), P16066
T1 chain: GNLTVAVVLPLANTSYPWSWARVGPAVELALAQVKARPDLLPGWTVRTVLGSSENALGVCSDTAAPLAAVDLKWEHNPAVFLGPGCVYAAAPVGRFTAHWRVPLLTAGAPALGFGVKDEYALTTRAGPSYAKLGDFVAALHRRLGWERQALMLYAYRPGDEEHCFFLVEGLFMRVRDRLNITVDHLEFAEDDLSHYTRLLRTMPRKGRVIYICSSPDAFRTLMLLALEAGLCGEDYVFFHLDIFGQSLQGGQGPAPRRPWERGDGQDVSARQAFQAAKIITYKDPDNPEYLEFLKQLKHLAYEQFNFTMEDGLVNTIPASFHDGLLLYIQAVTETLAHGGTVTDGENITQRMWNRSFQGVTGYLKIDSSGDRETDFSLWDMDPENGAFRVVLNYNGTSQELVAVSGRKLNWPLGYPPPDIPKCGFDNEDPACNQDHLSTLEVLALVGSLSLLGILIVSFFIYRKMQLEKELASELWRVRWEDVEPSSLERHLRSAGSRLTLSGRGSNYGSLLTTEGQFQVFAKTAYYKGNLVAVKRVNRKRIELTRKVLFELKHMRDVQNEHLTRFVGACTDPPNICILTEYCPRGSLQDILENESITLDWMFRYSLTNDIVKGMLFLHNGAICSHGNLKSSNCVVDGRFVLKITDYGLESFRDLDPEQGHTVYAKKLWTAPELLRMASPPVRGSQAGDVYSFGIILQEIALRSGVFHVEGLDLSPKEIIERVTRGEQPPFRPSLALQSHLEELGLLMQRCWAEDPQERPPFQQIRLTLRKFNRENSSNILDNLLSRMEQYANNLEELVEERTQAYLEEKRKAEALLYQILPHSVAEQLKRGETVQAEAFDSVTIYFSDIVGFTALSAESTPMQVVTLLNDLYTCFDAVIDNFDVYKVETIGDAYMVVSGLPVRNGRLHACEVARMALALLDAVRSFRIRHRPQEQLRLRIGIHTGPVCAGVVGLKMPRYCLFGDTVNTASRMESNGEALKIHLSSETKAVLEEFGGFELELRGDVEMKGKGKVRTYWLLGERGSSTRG

T2: extracellular domain of GC-A recombinant protein with a C-terminal His-tag (human), P16066
T2 chain: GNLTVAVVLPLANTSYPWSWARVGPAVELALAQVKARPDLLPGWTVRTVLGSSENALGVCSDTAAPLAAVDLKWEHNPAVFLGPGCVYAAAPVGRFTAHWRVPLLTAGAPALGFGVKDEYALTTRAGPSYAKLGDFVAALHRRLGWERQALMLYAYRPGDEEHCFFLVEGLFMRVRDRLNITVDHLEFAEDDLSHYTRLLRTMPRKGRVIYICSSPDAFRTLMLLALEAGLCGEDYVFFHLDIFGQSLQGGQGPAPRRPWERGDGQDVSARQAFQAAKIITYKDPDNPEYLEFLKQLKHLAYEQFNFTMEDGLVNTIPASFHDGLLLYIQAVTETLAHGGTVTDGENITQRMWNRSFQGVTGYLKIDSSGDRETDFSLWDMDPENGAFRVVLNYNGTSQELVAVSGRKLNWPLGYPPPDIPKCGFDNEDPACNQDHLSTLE


Columns and labels:
[1] = test system: Spontaneously Hypertensive Rats (SHR); experiment: Plasma cGMP in spontaneously hypertensive rats; assay type: in vivo, rat; details: iv infusion, FIG. 9A
Procedure: All rat experiments are conducted following the Animal Welfare Act and the protocol is approved by the Mayo Clinic Institutional Animal Care and Use Committee (IACUC). […] Rats are included only if they are deemed healthy by the Institutional Veterinarian Department. Investigators who conduct the in vivo study are not blinded to treatments, but biochemical analysis is performed by a different investigator who is blinded to treatment.
On the day of the experiment, SHR rats are anesthetized with inactin (120 mg/kg, intraperitoneal injection, Sigma, St. Louis, MO). Rats are then kept on a heating pad at 38° C. to maintain a normal body temperature for the entire study. Vascular and bladder cannulation procedures are conducted. Briefly, a polyethylene-50 (PE-50) tube catheter is placed into one jugular vein for peptide infusion and another PE-50 tube is placed into the carotid artery for blood pressure (BP) monitoring (Sonometrics, London, Ontario, Canada) and blood sampling. After instrumentation, a 15-minute equilibrium period follows, and a 30-minute pre-infusion period is performed to collect baseline urine samples.
Four blood samples are collected to determine circulating cGMP levels: at baseline, before the end of drug infusion, at the middle of the washout clearance period, and before the end of the washout clearance period. Any blood loss in the rats is replaced with an equal volume of saline. BP is monitored and recorded every 15 minutes beginning after the initiation of peptide infusion. All collected blood are stored at −80° C. until assayed.
For the biochemical analysis, plasma cGMP levels are measured with a cGMP ELISA kit (Enzo Life Sciences, Farmingdale, NY).

[2] = molecular target: T1, human GC-A (human), P16066; experiment: cell-based or functional assay
[3] = molecular target: T2, extracellular domain of GC-A …; experiment: SPR (BI-4500, 25 C); His-tagged GC-A extracellular domain immobilized on Ni-NTA chip; CRRL 191 injected at 0.125, 0.25, 0.5, 1 and 2 nM
[4] = molecular target: T2, extracellular domain of GC-A …; experiment: SPR (BI-4500), His-tagged GC-A extracellular domain on Ni-NTA chip, peptide as analyte, 25 C

Molecule | plasma cGMP levels [1] | EC50 of cGMP production, HEK293 GC-A cells, 10 min stimulation [2] [nM] | intracellular cGMP (Mean) at 10^-6 M peptide [2] | intracellular cGMP (Mean) at 10^-7 M peptide [2] | intracellular cGMP (Mean) at 10^-8 M peptide [2] | intracellular cGMP (Mean) at 10^-9 M peptide [2] | intracellular cGMP (Mean) at 10^-10 M peptide [2] | intracellular cGMP (Mean) at 10^-12 M peptide [2] | intracellular cGMP (Mean) at 10^-14 M peptide [2] | Kd [3] [nM] | Kd [4] [nM]
CC[C@H](C)[C@@H]1NC(=O)[C@H](CCCNC(=N)N)NC(=O)[C@H](CC(=O)O)NC(=O)[C@H](CCSC)NC(=O)[C@H](CCCNC(=N)N)NC(=O)CNC(=O)CNC(=O)[C@H](Cc2ccccc2)NC(=O)[C@@H](NC(=O)[C@H](CO)NC(=O)[C@H](CO)NC(=O)[C@H](CCCNC(=N)N)NC(=O)[C@H](CCCNC(=N)N)NC(=O)[C@H](CC(C)C)NC(=O)[C@@H](N)CO)CSSC[C@@H](C(=O)N[C@@H](CC(N)=O)C(=O)N[C@@H](CO)C(=O)N[C@@H](Cc2ccccc2)C(=O)N[C@@H](CCCNC(=N)N)C(=O)N[C@@H](Cc2ccc(O)cc2)C(=O)O)NC(=O)CNC(=O)[C@H](CC(C)C)NC(=O)CNC(=O)[C@H](CO)NC(=O)[C@H](CCC(N)=O)NC(=O)[C@H](C)NC(=O)CNC1=O [ANP, reference compound] | increase | – | – | – | – | – | – | – | – | – | –
RALLTAPRSLRRSSCFGHKIDRINHVSNLGCNSFRYRITAREDKQGWA (modifications not checked) [CRRL 191] | – | 0.48 | 135 | 141 | 152 | 89.9 | 35.6 | 2.57 | 3.07 | 0.128 | 0.128
